Assay results from patent US8895303B2, “Method of cell culture and method of treatment comprising a vEPO protein variant” (Charite-Universitatsmedizin Berlin, priority 2006, dated 2014).

B1: mS: murine EPO splice variant, peptide sequence SEQ ID NO 14 (protein, listed as Mus musculus)
chain: MGVPERPTLLLLLSLLLIPLGLPVLCAPPRLICDSRVLERYILEAKEAENVTMGCAEGPRLSENITVPDTKVNFYAWKRMEKELMSPPDTTPPAPLRTLTVDTFCKLFRVYANFLRGKLKLYTGEVCRRGDR
B2: mG3: murine EPO variant, peptide sequence SEQ ID NO 16 (protein, listed as Mus musculus)
chain: MGVPERPTLLLLLSLLLIPLGLPVLCAPPRLICDSRVLERYILEAKEAENVTMGCAEGPRLSENITVPDTKVNFYAWKRMEVEEQAIEVWQGLSLLSEAILQAQALLANFLRGKLKLYTGEVCRRGDR
B3: mEPO: wild type mouse erythropoietin expressed in HEK cells (protein, listed as Mus musculus)
chain: MGVPERPTLLLLLSLLLIPLGLPVLCAPPRLICDSRVLERYILEAKEAENVTMGCAEGPRLSENITVPDTKVNFYAWKRMEVEEQAIEVWQGLSLLSEAILQAQALLANSSQPPETLQLHIDKAISGLRSLTSLLRVLGAQKELMSPPDTTPPAPLRTLTVDTFCKLFRVYANFLRGKLKLYTGEVCRRGDR

Legend:
[1] = tested on: rat primary cortical neurons; test: Oxygen glucose deprivation (OGD) neuroprotection assay, LDH release; assay type: cell-based; settings: for neuroprotection (reduction in LDH release): OGD 3 h 15 min (higher level of damage)
Experimental: Rat primary neuronal cultures were obtained from E16 to early E19 embryos of Wistar rats (Bundesinstitut für gesundheitlichen Verbraucherschutz and Veterinärmedizin, Berlin, Germany). Cre-expressing mouse neurons were obtained from E16 embryos of heterozygous transgenic mice expressing Cre-recombinase under the control of the tubulin α-1 promoter (provided by Dr. U. Schweitzer; Experimental Endocrinology, Charité). Murine and rat cultures were prepared according to a modified protocol from Brewer (1995) J Neurosci Res. 42: 674-83. Cerebral cortex was isolated after removal of meninges and rinsed twice in PBS (Biochrom, Berlin, Germany). After 15 min incubation in trypsin/EDTA (0.05/0.02% w/v in PBS) at 37° C., tissues were rinsed twice in N-Med (modified Eagle's medium from Gibco with 10% fetal calf serum, 100 U penicillin plus streptomycin from Biochrom, 2 mM L-glutamine, 100 IE insulin/I, 10 mM HEPES and 44 mM glucose) and dissociated carefully in a small volume of N-Med using a Pasteur pipette. […]
For OGD, the culture medium was washed out by rinsing once with PBS. […] After 24 h, lactate dehydrogenase (LDH) activity was measured in the supernatants as an indicator of cell death.
For LDH measurement 25 μl of medium was mixed with 100 μl fresh β-NADH solution (0.15 mg/ml in 1×LDH-buffer; Sigma, reduced form) in a 96 wells plate (Greiner). 25 μl of 22.7 mM pyruvate (Sigma) was added immediately before placing the plate into the Reader (Thermo Labsystems; MRX^TC Revelation). […] LDH-concentration was calculated proportionally to the LDH-standard (Greiner, system calibrator). […]
For pretreatment with rhEPO, wild type mEPO, wild type hEPO or EPO variants the medium was removed to an end volume of 200 μl and filled up with 200 μl fresh NBM+B27 containing equimolar amounts (corresponding to 200 U/l rhEpo) of EPO or EPO variants, respectively. […] Cell death was assessed 24 h after OGD by measurement of LDH release. […]

bone marrow cells = test: Erythroid colony formation assay (CFU-E); assay type: cell-based, mouse; settings: 150 U/l mEPO or rhEPO, comparable protein concentrations of variants; no additional cytokines; counted at DIV2
Experimental: Bone marrow cells were harvested from tibia and femur of male […] mice (8-11 weeks) and resuspended in α-medium (supplemented with 10% fetal calf serum GOLD, 1% penicillium/streptavidine and 1% L-glutamine). Cells were seeded in […] Petri dishes (225.000 cells/dish) containing 8 parts Metho Cult SF 3236 methyl cellulose (StemCell Technologie Inc), 1 part cells and 2 parts a-medium mixed with HEK-cell preconditioned medium containing the EPO derivates (150 U/l in the case of murine EPO). 150 U/l of rhEPO (Roche) was used as positive control. Plates were incubated at 37° C. in a humidified atmosphere containing 5% CO2 for 48 hours. For evaluation only reddish colonies containing at least 6 hemoglobinised cells were taken into account.
Metho Cult SF 3236 triggers the formation of colonies (CFU-M, CFU-G or CFU-E) only after addition of the appropriate cytokines. […] The small irregular reddish colonies disappear by day 3.
In this assay, the hematopoietic potential of the variants was tested and compared to wild type form of EPO as well as rhEPO. The following conditions were prepared for comparison: medium from HEK cells transfected with pZ/EG as negative control, medium from HEK cells transfected with pZ/EG cells plus 150U/l rhEPO (Roche) as a positive control, and medium from HEK cells transfected with either pZ/EG-EPO-IRES (150 U/l murine EPO), pZ/EG-Splice-IRES (variant S; mS) or pZ/EG-G3-IRES (variant G3; mG3). At DIV2 only reddish colonies were counted containing at least 6 hemoglobinised cells. The results of three independent experiments are depicted in FIG. 5.

Molecule	neuroprotection (reduction in LDH release) [1] [%]	hematopoietic potential (formation of CFU-E) (bone marrow cells)	protection rate (reduction in LDH release) ([1]; OGD 1 h 40 min and 1 h 50 min)
B1	~60	lacked hematopoietic potential	
B2	~60	lacked hematopoietic potential	
B3		formation of cfu-e	no protection
